Test results taken from patent publication US7271245B2, “Methods and compositions for inhibition of metastasis” (The Scripps Research Institute, priority 2004, dated 2007).
Changes are numbered by the printed parent chain.

B1: Bc-12: patient derived human scFv antibody against activated αvβ3 with RGD motif in CDR-H3; cDNA ATCC PTA-6303 (protein)
scFv: MAQVQLVQSGAEVKKPGASVKVSCKASGYTFSNYGITWVRQAPGQGLEWMGWINNGNTHYAQKFQGRVTMTTDTSTSTAYMELRSLRSDDTAVYYCARDPRGDDEPYWGQGTLVTVSSGGGGSGGGGSGGGGSEIVLTQSPLSLPVTLGQPASISCRSSQNLVYSDGNTYLSWFQQRPGQSPRRLIYKVSNRDSGVPDRFSGSGSGTDFTLKISRVEAEDIGVYYCMQGTHWPPRTFGQGTKVEIKRGLGGLVDYKDDDDK
B2: Mut-12: RGE containing mutant version of scFv Bc-12 (protein)
chain: B1 scFv with D103E

Legend:
[1] = system: BMS human breast cancer cells; assay: Haptotactic tumor cell migration toward fibrinogen (transwell); assay type: cell-based; settings: 2 μM scFv, 16 hrs at 37° C.
Method: (§1) FIGS. 3A, 3B, 3C, 3D, 3E. scFv Bc-12 and Bc-15 inhibit αvβ3 mediated adhesive breast cancer cell functions. (A) Adhesion of BMS human breast cancer cells to fibrinogen (Fg), vitronectin (VN) or type I collagen (Col I) in the absence or presence of 3 μM Bc-12, Bc-15 or their RGE mutants Mut-12, Mut-15, compared to 200 μM GRGDSPK peptide (SEQ ID NO: 11). Protein coating concentrations: 10 μg/ml (VN, Col I) or 20 μg/ml (Fg). Adhesion time: 30 min at 37° C. (B) Effect of scFvs on haptotactic BMS cell migration toward a fibrinogen substrate (16 hrs at 37° C. in transwell chambers with or without 2 μM Bc-12, Bc-15 or their RGE mutants Mut-12 or Mut-15, compared to 200 μM GRGDSPK peptide) (SEQ ID NO: 11). (C) Effect of scFvs on breast cancer cell arrest during blood flow. Metastatic BMS cells, labeled with hydroethidine, were suspended in human blood (anticoagulated with 50 nM PPACK) and perfused over a collagen I matrix at a venous wall shear rate of 50 s^−1. Under these conditions, breast cancer cells arrest by αvβ3 mediated binding to adherent, thrombus forming platelets. Tumor cell adhesion was quantified by image acquisition at 30 predefined positions during blood flow. Left: representative images of platelet signal (thrombi, green fluorescence) and tumor cell signal (red fluorescence) at identical x,y positions. Right: Number of arrested tumor cells in the presence of 3 μM non-function blocking anti αv scFv Bc-20 or function blocking anti αvβ3 scFvs Bc-12 or Bc-15. (D) scFv Bc-15 is internalized by human breast cancer cells and reduces cell proliferation. Left: confocal images of BMS cells incubated for 4 hrs with FITC-Bc-15 at 4° C. (binding) versus 37° C. (allowing internalization). Right: Phase contrast images of BMS cell cultures 4 days after seeding in the presence of 2 μM RGE containing scFv Mut-15, or RGD containing Bc-15. […]
Cell adhesion and migration. Tumor cell adhesion under stationary conditions was analyzed as detailed earlier (19). […] Haptotactic tumor cell migration toward fibrinogen was analyzed in transwell chambers as detailed earlier. […]

BMS breast cancer cells = assay: Tumor cell arrest during blood flow; assay type: cell-based; settings: 3 μM scFv, human blood, collagen I matrix, shear rate 50 s^−1
Method: as §1, with “positions.” for “positions. Right: Number of arrested tumor cells in the presence of 3 μM non-function blocking anti αv scFv Bc-20 or function blocking anti αvβ3 scFvs Bc-12 or Bc-15. (D) scFv Bc-15 is internalized by human breast cancer cells and reduces cell proliferation. Left: confocal images of BMS cells incubated for 4 hrs with FITC-Bc-15 at 4° C. (binding) versus 37° C. (allowing internalization). Right: Phase contrast images of BMS cell cultures 4 days after seeding in the presence of 2 μM RGE containing scFv Mut-15, or RGD containing Bc-15.”
Tumor cell arrest during bloodflow. Breast cancer cell arrest during blood flow and interaction with platelets was measured as described. […] Adhesive events and cell interactions were visualized and recorded by fluorescence video microscopy and quantified by image acquisition at 30 predefined positions followed by computerized image analysis (MetaMorph, Universal Imaging). Tumor cells were stained with hydroethidine (red fluorescence) (20 μg/ml, 30 min, 37° C.), washed, and mixed with blood containing 10 μM mepacrine (green fluorescence). Blood cells, tumor cells, and platelets acquired green fluorescence and were visualized at 488/515 nm (excitation/emission). Tumor cells were identified by their unique red fluorescence at 543/590 nm. […]

Molecule	fibrinogen directed migration [1]	breast cancer cell arrest during blood flow (BMS breast cancer cells)
B1	inhibited BMS human breast cancer cell migration almost completely	efficiently inhibited
B2	only a minor effect	no effect
